Test results from patent publication US20190241663A1 (Genentech, published 2019).

T1: S114A human B7-H4 (full-length membrane construct, glycosylation site N112-S114 removed) (human, UniProt Q7Z7D3 29-282)
T1 construct: Transiently transfected into 293 cells; also called mutated S114A human B7-H4
T1 sequence: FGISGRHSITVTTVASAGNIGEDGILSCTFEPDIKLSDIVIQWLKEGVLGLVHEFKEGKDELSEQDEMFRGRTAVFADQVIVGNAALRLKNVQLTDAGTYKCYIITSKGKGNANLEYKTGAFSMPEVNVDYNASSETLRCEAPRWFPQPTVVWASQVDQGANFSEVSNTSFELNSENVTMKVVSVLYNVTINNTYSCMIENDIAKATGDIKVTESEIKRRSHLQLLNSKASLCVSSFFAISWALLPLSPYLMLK

T2: irrelevant (Ig-V)-B7-H4 (Ig-C; D158-G236 including TM/CD D237-K282) chimeric membrane protein (construct-88B) (human, UniProt Q7Z7D3 158-282)
T2 construct: Transiently expressed on 293 cells; also called B7-H4 Ig-C domain; not shown: irrelevant Ig-V domain; an N-terminal or cytoplasmic tag was attached but is not described
T2 sequence: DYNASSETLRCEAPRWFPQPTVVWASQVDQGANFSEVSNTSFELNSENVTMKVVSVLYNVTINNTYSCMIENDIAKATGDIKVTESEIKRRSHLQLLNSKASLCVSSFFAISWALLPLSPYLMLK

B1: ch1D11, slightly modified version with light chain C43G (antibody, human IgG1, V domains shown)
VH: QVQLQQSGAELVRPGTSVKMSCKASGYTFTSYWIGWAKQRPGHGFEWIGDIYPGGGYTNYNEKFKGKATLTADKSSSTAYMQFSSLTSEDSAIYYCARLDGSSYRGAMDSWGQGTSITVSS
VL: DIQMTQSPSSLSASLGGKVTITCKASQGFNKYVAWYQHKPGQGPRLLIHYTSTLQPGIPARFSGSGSGRDYSFSISNLEPEDSATYFCLQYGNLLYAFGGGTKLEIKR
notes: Human IgG1 / kappa chimeric; also called ch1D11 (C43G light chain)
B2: chimeric antibody ch9B9 (antibody, V domains shown)
VH: QVQLQQSGAELMKPGASVKMSCKATGYTFSSYWIEWVKQRPGHGLEWIGEILPGTSITTYNAKFKVKATFTADTSSNTAYMQLSSLTSEDSAVYFCARYYFGSSSFYFDYWGQGTSLTVSS
VL: QAVVTQESALTTSPGDTVTLTCRSSTGAVTTSNYANWVQEKPDHLFTGLIGGTNNRVPGVPARFSGSLIGDKAALTITGAQTEDEAMYFCALWYNNHWVFGGGTKLE
B3: chimeric antibody ch22C10 (antibody, V domains shown)
VH: QVQLQQPGAELVKPGTSVKLSCKASGYTFTNFWIHWVIQRPGQGLEWIGEIDPSDSYTNYNQKFKGKATLTVDKSSNTAYMQLSSLTSEDSAVYYCSREITTVDYWGQGTTLTVSS
VL: QIVLTQSPTIMSASPGEKVTLTCSATSSISYMHWYQQKPGTSPKGWIYDTSKLAHGVPARFSGSGSGTSYSLTISSMEAEDAATYYCHQRRSYPFTFGSGTKLEIK
notes: also called ch2210; parental 22C10 antibody
B4: chimeric antibody ch32D6 (antibody, V domains shown)
VH: EVQLQQSGPDLVKPGASVKISCKASGYSFTGYYIHWMKQSHGKSLEWIGRVNPNNGDPIYNQKFRGKAILTVDQSSNTAYMELRSLTSEASAVYYCARVLFYYGSPFAYWGQGTLVTVSA
VL: DIVMTQSPSSLIVTAGEKVTMSCRSSQSLFDSGSQRNYLTWFHQKPGRPPKLLIYWASTRESGVPDRFTGSGSGTDFTLTISSVQTEDLAVYFCQNDYSFPFTFGSGTKLEEK

biological target: T1, S114A human B7-H4 (full-length membrane …); test: FACS on 293 cells transfected with S114A human B7-H4, against isotype control
From the text: The B7-H4 (Ig-V) domain contains a single N-linked glycosylation site (N112-S114), and to determine whether glycosylation influences binding of the antibodies to B7-H4, S114 was substituted with alanine using standard site-specific mutagenesis to prevent glycosylation in the full-length human B7-H4 membrane construct.

Row | fold binding over isotype control [fold] | Binder
1 | 100 | B1
2 | 100 | B2
3 | 100 | B3
4 | 100 | B4

biological target: T2, irrelevant (Ig-V)-B7-H4 (Ig-C; …); test: FACS on 293 cells transiently transfected with construct-88B, dye-labeled antibody
From the text: To determine whether the B7-H4 antibodies bind to either the Ig-V or Ig-C domain of B7-H4, chimeric Ig domain molecules were engineered that contain either a B7-H4 (IgV; G28-F150 including spacer S151-V157)—irrelevant (Ig-C) (construct-88) or an irrelevant (Ig-V)-B7-H4 (Ig-C; D158-G236 including TM/CD D237-K282) (construct-88B) membrane protein using standard molecular cloning methods. N-terminal or cytoplasmic tags were attached to confirm that 293 cells transfected with these constructs express protein on the cell membrane (data not shown). Briefly, 293 cells were transiently transfected with constructs 88 & 88B using polyfect. After 48 hours, the cells were stained with 10 μg/ml of Dylight-488 or −650 labeled ch9B9, ch1D11, ch22C10 or ch32D6 for 30-40 minutes at 4° C., washed and analyzed on a BD FACS calibur.

Row | binding result | Binder
5 | no binding (tested: 10 µg/ml) | B1
6 | no binding (tested: 10 µg/ml) | B2
7 | no binding (tested: 10 µg/ml) | B3
8 | no binding (tested: 10 µg/ml) | B4
